Measurements published in patent US20060193849A1 (published 2006).

Biological target: MUC-1 gene product, the membrane mucin glycoprotein (polymorphic epithelial mucin or PEM) (human, UniProt P15941 24-1255)
Assay: flow cytometry equilibrium binding on MCF7 cells

MUC-1 gene product, the membrane mucin glycoprotein (polymorphic epithelial mucin or PEM), sequence (P15941 24-1255): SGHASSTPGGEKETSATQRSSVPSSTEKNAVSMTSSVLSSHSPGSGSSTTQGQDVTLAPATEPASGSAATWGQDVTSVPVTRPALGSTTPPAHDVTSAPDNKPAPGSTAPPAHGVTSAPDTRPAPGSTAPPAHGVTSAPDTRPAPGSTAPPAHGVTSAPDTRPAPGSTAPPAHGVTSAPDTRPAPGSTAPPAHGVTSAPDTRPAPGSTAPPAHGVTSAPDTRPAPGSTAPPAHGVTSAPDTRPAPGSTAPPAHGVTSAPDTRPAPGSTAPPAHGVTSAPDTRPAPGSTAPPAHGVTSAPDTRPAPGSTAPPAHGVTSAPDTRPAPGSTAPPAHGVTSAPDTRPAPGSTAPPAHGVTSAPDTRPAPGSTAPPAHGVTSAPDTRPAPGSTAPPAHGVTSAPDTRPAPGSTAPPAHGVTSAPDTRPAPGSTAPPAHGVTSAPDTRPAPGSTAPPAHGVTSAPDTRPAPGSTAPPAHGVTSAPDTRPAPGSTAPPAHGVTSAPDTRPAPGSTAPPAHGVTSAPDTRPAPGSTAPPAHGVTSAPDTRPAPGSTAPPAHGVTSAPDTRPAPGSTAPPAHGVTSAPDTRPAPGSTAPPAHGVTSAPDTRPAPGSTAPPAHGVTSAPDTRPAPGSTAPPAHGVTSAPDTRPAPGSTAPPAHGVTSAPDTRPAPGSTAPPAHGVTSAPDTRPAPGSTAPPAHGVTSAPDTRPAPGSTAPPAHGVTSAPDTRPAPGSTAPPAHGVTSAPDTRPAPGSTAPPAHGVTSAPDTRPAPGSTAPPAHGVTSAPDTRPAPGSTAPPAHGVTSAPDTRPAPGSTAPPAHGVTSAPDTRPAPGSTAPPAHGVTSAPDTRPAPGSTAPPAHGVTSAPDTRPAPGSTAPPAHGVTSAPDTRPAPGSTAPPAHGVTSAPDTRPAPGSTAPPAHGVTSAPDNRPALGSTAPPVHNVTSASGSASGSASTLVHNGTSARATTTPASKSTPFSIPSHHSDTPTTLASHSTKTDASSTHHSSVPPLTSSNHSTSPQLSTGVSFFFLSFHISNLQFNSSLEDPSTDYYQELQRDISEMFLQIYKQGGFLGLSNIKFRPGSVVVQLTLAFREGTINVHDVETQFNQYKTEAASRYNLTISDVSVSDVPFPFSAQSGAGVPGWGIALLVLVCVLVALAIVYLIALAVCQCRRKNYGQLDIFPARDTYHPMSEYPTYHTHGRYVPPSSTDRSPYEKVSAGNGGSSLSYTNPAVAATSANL

Kd: 114 nM
B1: huHMFG1 wild-type scFv 4.10W (scFv)
scFv: QVQLVQSGAEVKKPGASVKVSCKASGYTFSAYWIEWVRQAPGKGLEWVGEILPGSNNSRYNEKFKGRVTVTRDTSTNTAYMELSSLRSEDTAVYYCARSYDFAWFAYWGQGTLVTVSSGGGGSGGGGSGGGGSDIQMTQSPSSLSASVGDRVTITCKSSQSLLYSSNQKIYLAWYQQKPGKAPKLLIYWASTRESGVPSRFSGSGSGTDFTFTISSLQPEDIATYYCQQYYRYPRTFGQGTKVEIKR
